US20210206851A1 (MacroGenics, published 2021)
Numbering of substitutions follows the chain as printed. Names and notes keep the numbering of the source.

Key:
[1] = molecular target: T1, His-tagged soluble human LAG-3 (shLAG-3-His) (human, UniProt P18627 23-450); test: SPR (Biacore); antibody captured on immobilized Fab2 goat anti-human Fc, shLAG-3-His in solution
T1 construct: also called soluble human LAG-3-His fusion protein; extracellular domain of human LAG-3 fused to a His tag; not shown: His tag
T1 sequence: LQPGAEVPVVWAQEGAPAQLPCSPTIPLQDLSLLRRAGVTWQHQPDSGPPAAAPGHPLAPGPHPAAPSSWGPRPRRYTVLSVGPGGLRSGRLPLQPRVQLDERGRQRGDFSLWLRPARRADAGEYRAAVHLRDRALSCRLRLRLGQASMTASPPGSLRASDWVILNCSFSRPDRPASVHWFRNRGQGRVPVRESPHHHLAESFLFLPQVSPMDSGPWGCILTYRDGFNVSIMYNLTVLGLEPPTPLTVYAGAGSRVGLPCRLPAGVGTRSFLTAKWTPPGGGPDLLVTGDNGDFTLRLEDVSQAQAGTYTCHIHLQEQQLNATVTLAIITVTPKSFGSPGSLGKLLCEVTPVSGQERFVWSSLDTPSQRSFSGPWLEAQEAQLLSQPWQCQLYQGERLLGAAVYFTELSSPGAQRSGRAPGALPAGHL

[2] = molecular target: T2, soluble cynomolgus monkey LAG-3 fusion protein (extracellular domain of cynomolgus monkey LAG-3 fused to … (cynomolgus monkey; murine); test: SPR (Biacore); cynomolgus LAG-3 ECD-murine IgG2a fusion captured on Fab2 goat-anti-mouse Fc, antibody in solution
T2 construct: extracellular domain; also called cynomolgus LAG-3-murine IgG2a fusion protein

[3] = molecular target: T3, soluble human LAG-3 fusion protein (extracellular domain of human LAG-3 fused to murine IgG2a) (human; murine, UniProt P18627 23-450); test: SPR (Biacore); human LAG-3 ECD-murine IgG2a fusion captured on Fab2 goat-anti-mouse Fc, antibody in solution
T3 construct: also called human LAG-3-murine IgG2a fusion protein; not shown: murine IgG2a
T3 sequence: T1 sequence

[4] = molecular target: T1, His-tagged soluble human LAG-3 …; test: ELISA, blocking; antibody mixed with soluble human LAG-3-His (0.2 ug/ml), binding to immobilized MHC class II
[5] = molecular target: T1, His-tagged soluble human LAG-3 …; test: SPR (Biacore); antibody captured on immobilized Protein A, shLAG-3-His in solution
[6] = molecular target: T4, soluble human LAG-3-Fc fusion protein (shLAG-3-Fc) (human, UniProt P18627 23-450, biotinylated in the Daudi cell assay); test: flow cytometry, blocking of biotinylated soluble human LAG-3-Fc binding to MHC class II on Daudi cells
T4 construct: also called biotinylated-soluble human LAG-3-Fc fusion protein; not shown: Fc portion; detected with goat anti-human Fc gamma
T4 sequence: T1 sequence

[7] = molecular target: T1, His-tagged soluble human LAG-3 …; test: SPR (Biacore); antibody captured on immobilized Fab2 goat-anti-mouse Fc, shLAG-3-His in solution
[8] = molecular target: T4, soluble human LAG-3-Fc fusion protein …; test: flow cytometry, blocking of biotinylated soluble human LAG-3-Fc binding to MHC class II on Daudi cells; remark: listed apart in the source
[9] = molecular target: T4, soluble human LAG-3-Fc fusion protein …; test: ELISA, blocking; antibody mixed with soluble human LAG-3-Fc (5 ug/mL), binding to immobilized MHC class II
[10] = molecular target: T1, His-tagged soluble human LAG-3 …; test: SPR (Biacore); antibody captured on immobilized Protein G, shLAG-3-His in solution

B1: hLAG-3 mAb 1 (1.4), IgG4 (S228P) (antibody)
heavy: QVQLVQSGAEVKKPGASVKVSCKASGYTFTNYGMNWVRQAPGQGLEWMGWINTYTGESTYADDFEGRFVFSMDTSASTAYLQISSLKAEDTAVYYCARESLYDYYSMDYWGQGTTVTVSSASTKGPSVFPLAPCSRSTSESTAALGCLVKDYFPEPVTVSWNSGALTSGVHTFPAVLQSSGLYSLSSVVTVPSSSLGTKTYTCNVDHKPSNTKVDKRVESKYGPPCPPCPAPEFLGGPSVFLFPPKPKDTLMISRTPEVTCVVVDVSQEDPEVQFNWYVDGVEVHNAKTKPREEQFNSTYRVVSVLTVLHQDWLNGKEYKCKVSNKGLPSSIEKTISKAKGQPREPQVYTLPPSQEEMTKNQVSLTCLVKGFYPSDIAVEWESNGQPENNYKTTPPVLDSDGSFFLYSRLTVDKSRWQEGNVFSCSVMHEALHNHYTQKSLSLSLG
light: DIVMTQTPLSLSVTPGQPASISCKSSQSLLHSDAKTYLNWLLQKPGQPPERLIYLVSELDSGVPDRFSGSGSGTDFTLKISRVEAEDVGVYYCWQGTHFPYTFGGGTKVEIKRTVAAPSVFIFPPSDEQLKSGTASVVCLLNNFYPREAKVQWKVDNALQSGNSQESVTEQDSKDSTYSLSSTLTLSKADYEKHKVYACEVTHQGLSSPVTKSFNRGEC
notes: also called hLAG-3 mAb 1 (1.4)^c, f
Work on B1 yielded a Kd [1] of 0.05 nM.

B2: hLAG-3 mAb 1 (1.4) (constant region not stated) (antibody, V domains shown)
VH: QVQLVQSGAEVKKPGASVKVSCKASGYTFTNYGMNWVRQAPGQGLEWMGWINTYTGESTYADDFEGRFVFSMDTSASTAYLQISSLKAEDTAVYYCARESLYDYYSMDYWGQGTTVTVSS
VL: DIVMTQTPLSLSVTPGQPASISCKSSQSLLHSDAKTYLNWLLQKPGQPPERLIYLVSELDSGVPDRFSGSGSGTDFTLKISRVEAEDVGVYYCWQGTHFPYTFGGGTKVEIK
notes: also called hLAG-3 1 (1.4); humanized hLAG-3 1 (1.4)
In the case of B2, the Kd [2] is reported as under 0.53 nM, the Kd [3] is reported as under 0.29 nM and the “IC50 (read off the curve)” value [4] is reported as about 0.3 nM.

B3: hLAG-3 mAb 1 (1.2), human IgG1 (AA) (antibody, V domains shown)
VH: B2 VH
VL: DIVMTQTPLSLSVTPGQPASISCKSSQSLLHSDGKTYLNWLLQRPGQSPERLIYLVSELDSGVPDRFSGSGSGTDFTLKISRVEAEDVGVYYCWQGTHFPYTFGGGTKVEIKR
notes: also called hLAG-3 1 (1.2)
Binder B3 has a Kd [5] of 0.01 nM.

B4: hLAG-3 mAb 1 (1.4), human IgG1 (AA) (antibody)
heavy: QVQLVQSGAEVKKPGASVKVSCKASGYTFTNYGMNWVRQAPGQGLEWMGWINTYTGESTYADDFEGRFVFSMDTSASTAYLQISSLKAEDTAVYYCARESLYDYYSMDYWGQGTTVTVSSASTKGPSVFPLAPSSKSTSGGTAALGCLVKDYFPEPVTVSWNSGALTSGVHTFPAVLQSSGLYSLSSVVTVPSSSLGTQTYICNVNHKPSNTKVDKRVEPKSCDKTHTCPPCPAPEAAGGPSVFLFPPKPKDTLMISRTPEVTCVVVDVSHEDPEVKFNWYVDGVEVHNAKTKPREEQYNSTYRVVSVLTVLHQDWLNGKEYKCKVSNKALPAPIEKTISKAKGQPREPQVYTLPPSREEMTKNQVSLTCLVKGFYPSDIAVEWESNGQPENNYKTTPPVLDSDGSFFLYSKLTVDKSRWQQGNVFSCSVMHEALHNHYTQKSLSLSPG
light: B1 light
notes: also called hLAG-3 mAb 1 (1.4)^c, e
With B4 the Kd [1] was 0.04 nM.

B5: hLAG-3 mAb 1 (2.2), human IgG1 (AA) (antibody, V domains shown)
VH: B2 VH with Y95F
VL: B3 VL
notes: also called hLAG-3 1 (2.2)
B5 was tested, and the Kd [5] was 0.3 nM.

B6: hLAG-3 mAb 1 (1.1), human IgG1 (AA) (antibody, V domains shown)
VH: B2 VH
VL: B3 VL with R44K
notes: also called hLAG-3 1 (1.1)
In the case of B6, the Kd [5] is reported as 0.04 nM.

B7: LAG-3 mAb 6 (antibody, V domains shown)
VH: EVLLQQSGPELVKPGASVKIPCKASGYTFTDYNMDWVKQSHGESLEWIGDINPDNGVTIYNQKFEGKATLTVDKSSSTAYMELRSLTSEDTAVYYCAREADYFYFDYWGQGTTLTVSS
VL: DIVMTQSHRFMSTSVGDRVSITCKASQDVSSVVAWYQQKPGQSPKLLIFSASYRYTGVPDRFTGSGSGTDFTFTISSVQAADLAVYYCQQHYSTPWTFGGGTKLEIK
notes: Murine monoclonal antibody
For B7, the “IC50 (read off the curve)” value [6] was about 200 ng/mL and the Kd [7] was 0.02 nM.

B8: LAG-3 mAb 3 (antibody, V domains shown)
VH: EVRLQQSGPELVKPGASVKISCKASGYTFTDYNIHWVRQSHGQSLEWIGYIYPYNGDTGYNQKFKTKATLTVDNSSNTAYMELRSLASEDSAVYYCTRWSRNYFGPWFAYWGQGTLVTVSA
VL: DIVLTQSPTSLAVSLGQRATISCKASQSVDYDGDSYMNWYQQKPGQPPKLLIYAASNLESGIPARFSGSGSGTDFTLNIHPVEEEDAATYYCQQSSEDPLTFGAGTKLELK
notes: Murine monoclonal antibody
B8 was tested, and the Kd [7] was 4.4 nM, the “IC50 (read off the curve)” value [8] was about 3 ng/mL and the “IC50 (read off the curve)” value [9] was about 30 nM.

B9: LAG-3 mAb 4 (antibody, V domains shown)
VH: EVQLHQSGPELVKPGASVKISCKTSGYTFTDYNIHWVKQSHGKSLEWIGYIYPYNGDAGYNQNFKTKATLTVDNSSSTAYMELRSLTSEDSAVYYCARWNMNYFGPWFAYWGQGTLVTVSA
VL: B8 VL with T9A, D34V, S35T, M37I, Y53F, S96N
notes: Murine monoclonal antibody
With B9 the Kd [7] was 0.8 nM and the “IC50 (read off the curve)” value [8] was about 3 ng/mL.

B10: LAG-3 mAb 2 (antibody, V domains shown)
VH: EVQLQQSGPELVKPGASVKISCKTSGYTFTDYNIHWLRQSHGESLEWIGYIYPYSGDIGYNQKFKNRATLTVDNSSSTAYMDLRSLTSEDSAVFYCARWHRNYFGPWFAYWGQGTPVTVSA
VL: B8 VL with T9A, D34E, A54V, A55V
notes: Murine monoclonal antibody
In the case of B10, the Kd [7] is reported as 1.9 nM and the “IC50 (read off the curve)” value [8] is reported as about 3 ng/mL.

B11: LAG-3 mAb 5 (antibody, V domains shown)
VH: B10 VH with T24A, L37V, R38K, H41P, E43K, I58F, N66S, R67K, P116L
VL: B8 VL with T9A, D34E, A54V, A55V
notes: Murine monoclonal antibody
For B11, the Kd [7] was 0.9 nM, the “IC50 (read off the curve)” value [8] was about 3 ng/mL and the “IC50 (read off the curve)” value [9] was about 30 nM.

B12: LAG-3 mAb 1 (antibody, V domains shown)
VH: QIQLVQSGPELKKPGETVKISCKASGYTFRNYGMNWVKQAPGKVLKWMGWINTYTGESTYADDFEGRFAFSLGTSASTAYLQINILKNEDTATYFCARESLYDYYSMDYWGQGTSVTVSS
VL: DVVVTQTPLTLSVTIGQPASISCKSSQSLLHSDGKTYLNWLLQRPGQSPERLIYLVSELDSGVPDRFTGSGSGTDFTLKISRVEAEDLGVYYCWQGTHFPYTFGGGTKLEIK
notes: Murine monoclonal antibody; also called murine anti-human antibody LAG-3 mAb 1
With B12 the “IC50 (read off the curve)” value [6] was about 100 ng/mL, the Kd [10] was 0.01 nM and the Kd [7] was 0.013 nM. For the same binder, the “IC50 (read off the curve)” value [8] was about 3 ng/mL and the “IC50 (read off the curve)” value [9] was about 20 nM.

B13: LAG-3 mAb A (antibody, V domains shown)
VH: QVQLQQWGAGLLKPSETLSLTCAVYGGSFSDYYWNWIRQPPGKGLEWIGEINHNGNTNSNPSLKSRVTLSLDTSKNQFSLKLRSVTAADTAVYYCAFGYSDYEYNWFDPWGQGTLVTVSS
VL: EIVLTQSPATLSLSPGERATLSCRASQSISSYLAWYQQKPGQAPRLLIYDASNRATGIPARFSGSGSGTDFTLTISSLEPEDFAVYYCQQRSNWPLTFGQGTNLEIK
notes: also called 25F7; BMS-986016
For B13, the “IC50 (read off the curve)” value [6] was about 100 ng/mL, the “IC50 (read off the curve)” value [4] was about 0.2 nM and the “IC50 (read off the curve)” value [8] was about 3 ng/mL.

B14: hLAG-3 mAb 6 (1.1) (antibody, V domains shown)
VH: QVQLVQSGAEVKKPGASVKVSCKASGYTFTDYNMDWVRQAPGQGLEWMGDINPDNGVTIYNQKFEGRVTMTTDTSTSTAYMELRSLRSDDTAVYYCAREADYFYFDYWGQGTTLTVSS
VL: DIQMTQSPSSLSASVGDRVTITCRASQDVSSVVAWYQQKPGKAPKLLIYSASYRYTGVPSRFSGSGSGTDFTLTISSLQPEDFATYYCQQHYSTPWTFGGGTKLEIK
notes: also called hLAG-3 6 (1.1); humanized LAG-3 mAb 6
In the case of B14, the Kd [2] is reported as 3.7 nM, the Kd [3] is reported as under 0.1 nM and the “IC50 (read off the curve)” value [4] is reported as about 0.3 nM.
